Reference: patent US20020058276A1 (GOVERNING COUNCIL OF THE UNIVERSITY OF TORONTO, published 2002)

B1: PAMPΔ312-369 (other, not shown: small tags and cut ends)
chain: NSVERKIYIPLNKTAPCVRLLNATHQIGCQSSISGDTGVIHVVEKEEDLQWVLTDGPNPPYMVLLESKHFTRDLMEKLKGRTSRIAGLAVSLTKPSPASGFSPSVQCPNDGFGVYSNSYGPEFAHCREIQWNSLGNGLAYEDFSFPIFLLEDENETKVIKQCYQDHNLSQNGSAPTFPLCAMQLFSHMHAVISTATCMRRSSIQSTFSINPEIVCDPLSDYNVWSMLKPINTTGTLKPDDRVVVAATRLDSRSFFWNVAPGAESAVASFVTQLAAAEALRTSLELWMHTDPVSQKNESVRNQVEDLLATLEKSGAGVPAVILRRPNQSQPLPPSSLQRFLRARNISGVVLADHSGAFHNKYYQSIYDTAENINVSYPEWLSPEEDLNFVTDTAKALADVATVLGRALYELAGGTNFSDTVQADPQTVTRLLYGFLIKANNSWFQSILRQDLRSYLGDGPLQHYIAVSSPTNTTYVVQYALANLTGTVVNLTREQCQDPSKVPSENKDLYEYSWVQGPLHSNETDRLPRCVRSTARLARALSPAFELSQWSSTEYSTWTESRWKDIRARIFLIASKELELITLTVGFGILIFSLIVTYCINAKADVLFIAPREPGAVSY
B2: PAMPΔ312-340 (other, not shown: small tags and cut ends)
chain: NSVERKIYIPLNKTAPCVRLLNATHQIGCQSSISGDTGVIHVVEKEEDLQWVLTDGPNPPYMVLLESKHFTRDLMEKLKGRTSRIAGLAVSLTKPSPASGFSPSVQCPNDGFGVYSNSYGPEFAHCREIQWNSLGNGLAYEDFSFPIFLLEDENETKVIKQCYQDHNLSQNGSAPTFPLCAMQLFSHMHAVISTATCMRRSSIQSTFSINPEIVCDPLSDYNVWSMLKPINTTGTLKPDDRVVVAATRLDSRSFFWNVAPGAESAVASFVTQLAAAEASRMVYDMEKGKFPVQLENVDSFVELGQVALRTSLELWMHTDPVSQKNESVRNQVEDLLATLEKSGAGVPAVILRRPNQSQPLPPSSLQRFLRARNISGVVLADHSGAFHNKYYQSIYDTAENINVSYPEWLSPEEDLNFVTDTAKALADVATVLGRALYELAGGTNFSDTVQADPQTVTRLLYGFLIKANNSWFQSILRQDLRSYLGDGPLQHYIAVSSPTNTTYVVQYALANLTGTVVNLTREQCQDPSKVPSENKDLYEYSWVQGPLHSNETDRLPRCVRSTARLARALSPAFELSQWSSTEYSTWTESRWKDIRARIFLIASKELELITLTVGFGILIFSLIVTYCINAKADVLFIAPREPGAVSY

Molecular target: wild type human presenilin 1 (PS1) (human, UniProt P49768 1-467)
Experiment: cell-based or functional assay

| Binder | Aβ42/Aβ40 Ratio |
| --- | --- |
| B1 | 0.09 normalized to mock transfection (1.0) |
| B2 | 0.59 normalized to mock transfection (1.0) |
